Experimental data: patent CN106754740A

Biological target: 纯化的重组蛋白MDR-1 (原核表达, PET28a-MDR-1, 大肠杆菌BL21) (human) (UniProt P08183)
Assay: direct ELISA, purified antibody diluted 1:200 to 1:12800 on plate coated with purified MDR-1 protein (10 μg/ml), goat anti-mouse IgG-HRP, OD450

UniProt P08183, sequence (P08183 whole entry): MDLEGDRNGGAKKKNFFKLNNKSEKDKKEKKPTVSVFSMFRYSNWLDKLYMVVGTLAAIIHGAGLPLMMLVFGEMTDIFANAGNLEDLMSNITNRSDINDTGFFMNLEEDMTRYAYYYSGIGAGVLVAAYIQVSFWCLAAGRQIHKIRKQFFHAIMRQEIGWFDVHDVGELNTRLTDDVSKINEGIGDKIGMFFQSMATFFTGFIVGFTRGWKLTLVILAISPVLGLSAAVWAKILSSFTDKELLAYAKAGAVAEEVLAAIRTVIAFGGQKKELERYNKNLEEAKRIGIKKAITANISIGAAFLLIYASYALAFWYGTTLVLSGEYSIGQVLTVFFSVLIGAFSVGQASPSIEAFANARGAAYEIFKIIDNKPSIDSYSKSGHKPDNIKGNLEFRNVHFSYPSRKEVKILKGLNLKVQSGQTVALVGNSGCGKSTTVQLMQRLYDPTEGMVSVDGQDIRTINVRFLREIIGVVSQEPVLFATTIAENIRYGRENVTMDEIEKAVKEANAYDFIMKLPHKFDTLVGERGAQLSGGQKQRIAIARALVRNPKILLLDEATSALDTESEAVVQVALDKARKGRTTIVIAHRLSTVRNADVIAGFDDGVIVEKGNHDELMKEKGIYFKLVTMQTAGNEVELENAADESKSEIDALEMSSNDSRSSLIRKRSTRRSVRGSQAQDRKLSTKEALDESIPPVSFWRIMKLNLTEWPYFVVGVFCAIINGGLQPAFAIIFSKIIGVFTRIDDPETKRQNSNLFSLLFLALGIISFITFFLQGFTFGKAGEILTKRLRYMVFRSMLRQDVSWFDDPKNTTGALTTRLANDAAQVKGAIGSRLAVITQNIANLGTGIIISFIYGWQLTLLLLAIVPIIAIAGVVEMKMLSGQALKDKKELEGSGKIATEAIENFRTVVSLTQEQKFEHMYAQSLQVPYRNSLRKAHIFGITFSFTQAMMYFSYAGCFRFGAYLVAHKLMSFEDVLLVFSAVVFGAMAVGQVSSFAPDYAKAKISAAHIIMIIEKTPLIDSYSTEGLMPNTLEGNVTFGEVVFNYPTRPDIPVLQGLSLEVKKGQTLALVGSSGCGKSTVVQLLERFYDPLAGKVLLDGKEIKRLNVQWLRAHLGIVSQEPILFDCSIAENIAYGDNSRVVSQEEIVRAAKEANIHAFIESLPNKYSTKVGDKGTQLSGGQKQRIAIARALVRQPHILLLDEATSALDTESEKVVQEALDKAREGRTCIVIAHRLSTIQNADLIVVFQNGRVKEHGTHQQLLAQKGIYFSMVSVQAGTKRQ

ELISA滴度 (dilution (1:x)): > 10000
B1: 小鼠抗人MDR-1单克隆抗体 (杂交瘤细胞株6C6, CGMCC No. 6917 产生) (antibody, part only; not given: light chain variable region, constant regions, V domains shown, part only)
VH: LGISTMNFGLSWVFLVLVLKGVQCEVKLVESGGGLVKPGGSLKLSCAASGFTFSNYAMSWVRQTPEKRLEWVASISSGGGGSTYYPDSVKGRFTISRDNARNILYLLMSSLRSEDTAMYYVCVMSLSEQSSCINLP
